Reference: US20130011378A1, “Stable formulations of a hyaluronan-degrading enzyme” (priority 2011, published 2013)

Experiment: RP-HPLC: insulin apparent solubility / percent recovery
Details: 7 days at 2-8° C.
Protocol: Apparent solubility was measured as the percent insulin recovery as compared to the initial formulations/conditions.
Samples were prepared by withdrawing 100 μL from each vial at every time point and centrifuging prior to loading. Samples were stored in an autosampler at 4° C. prior to use, and were considered stable for 3 days after preparation. All samples were tested in duplicate.
For insulin, 20 μL was injected for each HPLC run.
To determine the apparent solubility, the peak area of insulin/insulin analog main peak and desamido peak were integrated and combined together to calculate the percentage relative to the standards. […] The data were processed using Design-Expert® 7.0 (StatEase) and the “historical data” feature. Insulin percent purity was expressed as the percent of main insulin versus all insulin species.

regular insulin: mature human insulin, SEQ ID NOS: 103 and 104
Solubility of regular Insulin, % remaining of the original concentration (0.2% methylparaben + […] m-cresol, pH 6.6, NaCl 50 mM): 15.3%
Solubility of regular Insulin, % remaining of the original concentration (0.2% methylparaben + […] m-cresol, pH 6.6, NaCl 80 mM): 9.0%
Solubility of regular Insulin, % remaining of the original concentration (0.2% methylparaben + […] m-cresol, pH 6.6, NaCl 140 mM): 5.8%
Solubility of regular Insulin, % remaining of the original concentration (0.2% methylparaben + […] m-cresol, pH 6.8, NaCl 50 mM): 34.1%
Solubility of regular Insulin, % remaining of the original concentration (0.2% methylparaben + […] m-cresol, pH 6.8, NaCl 110 mM): 11.4%
Solubility of regular Insulin, % remaining of the original concentration (0.2% methylparaben + […] m-cresol, pH 7.0, NaCl 50 mM): 86.9%
Solubility of regular Insulin, % remaining of the original concentration (0.2% methylparaben + […] m-cresol, pH 7.0, NaCl 80 mM): 46.6%
Solubility of regular Insulin, % remaining of the original concentration (0.2% methylparaben + […] m-cresol, pH 7.0, NaCl 140 mM): 15.9%
Solubility of regular Insulin, % remaining of the original concentration (0.2% methylparaben + […] m-cresol, pH 7.2, NaCl 80 mM): 90.6%
Solubility of regular Insulin, % remaining of the original concentration (0.2% methylparaben + […] m-cresol, pH 7.2, NaCl 110 mM): 47.1%
Solubility of regular Insulin, % remaining of the original concentration (0.2% methylparaben + […] m-cresol, pH 7.2, NaCl 140 mM): 32.9%
Solubility of regular Insulin, % remaining of the original concentration (0.2% methylparaben + […] m-cresol, pH 7.4, NaCl 50 mM): 98.1%
Solubility of regular Insulin, % remaining of the original concentration (0.2% methylparaben + […] m-cresol, pH 7.4, NaCl 80 mM): 97.7%
Solubility of regular Insulin, % remaining of the original concentration (0.2% methylparaben + […] m-cresol, pH 7.4, NaCl 110 mM): 94.6%
Solubility of regular Insulin, % remaining of the original concentration (0.2% methylparaben + […] m-cresol, pH 7.4, NaCl 140 mM): 59.1%
Solubility of regular Insulin, % remaining of the original concentration (0.2% methylparaben + […] m-cresol, pH 7.6, NaCl 50 mM): 98.1%
Solubility of regular Insulin, % remaining of the original concentration (0.2% methylparaben + […] m-cresol, pH 7.6, NaCl 80 mM): 97.9%
Solubility of regular Insulin, % remaining of the original concentration (0.2% methylparaben + […] m-cresol, pH 7.6, NaCl 140 mM): 95.4%
Solubility of regular Insulin, % remaining of the original concentration (0.2% phenol + […] m-cresol, pH 6.6, NaCl 50 mM): 26.8%
Solubility of regular Insulin, % remaining of the original concentration (0.2% phenol + […] m-cresol, pH 6.6, NaCl 80 mM): 8.7%
Solubility of regular Insulin, % remaining of the original concentration (0.2% phenol + […] m-cresol, pH 6.6, NaCl 110 mM): 6.5%
Solubility of regular Insulin, % remaining of the original concentration (0.2% phenol + […] m-cresol, pH 6.6, NaCl 140 mM): 5.8%
Solubility of regular Insulin, % remaining of the original concentration (0.2% phenol + […] m-cresol, pH 6.8, NaCl 50 mM): 38.4%
Solubility of regular Insulin, % remaining of the original concentration (0.2% phenol + […] m-cresol, pH 6.8, NaCl 80 mM): 17.1%
Solubility of regular Insulin, % remaining of the original concentration (0.2% phenol + […] m-cresol, pH 6.8, NaCl 140 mM): 6.5%
Solubility of regular Insulin, % remaining of the original concentration (0.2% phenol + […] m-cresol, pH 7.0, NaCl 50 mM): 100.3%
Solubility of regular Insulin, % remaining of the original concentration (0.2% phenol + […] m-cresol, pH 7.0, NaCl 80 mM): 35.7%
Solubility of regular Insulin, % remaining of the original concentration (0.2% phenol + […] m-cresol, pH 7.0, NaCl 110 mM): 17.7%
Solubility of regular Insulin, % remaining of the original concentration (0.2% phenol + […] m-cresol, pH 7.0, NaCl 140 mM): 11.6%
Solubility of regular Insulin, % remaining of the original concentration (0.2% phenol + […] m-cresol, pH 7.2, NaCl 80 mM): 92.2%
Solubility of regular Insulin, % remaining of the original concentration (0.2% phenol + […] m-cresol, pH 7.2, NaCl 110 mM): 37.4%
Solubility of regular Insulin, % remaining of the original concentration (0.2% phenol + […] m-cresol, pH 7.2, NaCl 140 mM): 18.9%
Solubility of regular Insulin, % remaining of the original concentration (0.2% phenol + […] m-cresol, pH 7.4, NaCl 80 mM): 99.2%
Solubility of regular Insulin, % remaining of the original concentration (0.2% phenol + […] m-cresol, pH 7.4, NaCl 110 mM): 87.8%
Solubility of regular Insulin, % remaining of the original concentration (0.2% phenol + […] m-cresol, pH 7.4, NaCl 140 mM): 40.6%
Solubility of regular Insulin, % remaining of the original concentration (0.2% phenol + […] m-cresol, pH 7.6, NaCl 80 mM): 99.2%
Solubility of regular Insulin, % remaining of the original concentration (0.2% phenol + […] m-cresol, pH 7.6, NaCl 110 mM): 98.5%
Solubility of regular Insulin, % remaining of the original concentration (0.2% phenol + […] m-cresol, pH 7.6, NaCl 140 mM): 82.2%
Solubility of regular Insulin, % remaining of the original concentration ([…] phenol + […] m-cresol, pH 6.6, NaCl 50 mM): 31.2%
Solubility of regular Insulin, % remaining of the original concentration ([…] phenol + […] m-cresol, pH 6.6, NaCl 80 mM): 18.6%
Solubility of regular Insulin, % remaining of the original concentration ([…] phenol + […] m-cresol, pH 6.6, NaCl 140 mM): 12.9%
Solubility of regular Insulin, % remaining of the original concentration ([…] phenol + […] m-cresol, pH 6.8, NaCl 50 mM): 66.6%
Solubility of regular Insulin, % remaining of the original concentration ([…] phenol + […] m-cresol, pH 6.8, NaCl 80 mM): 24.9%
Solubility of regular Insulin, % remaining of the original concentration ([…] phenol + […] m-cresol, pH 7.0, NaCl 50 mM): 96.7%
Solubility of regular Insulin, % remaining of the original concentration ([…] phenol + […] m-cresol, pH 7.0, NaCl 80 mM): 80.8%
Solubility of regular Insulin, % remaining of the original concentration ([…] phenol + […] m-cresol, pH 7.0, NaCl 110 mM): 32.9%
Solubility of regular Insulin, % remaining of the original concentration ([…] phenol + […] m-cresol, pH 7.0, NaCl 140 mM): 17.1%
Solubility of regular Insulin, % remaining of the original concentration ([…] phenol + […] m-cresol, pH 7.2, NaCl 80 mM): 96.4%
Solubility of regular Insulin, % remaining of the original concentration ([…] phenol + […] m-cresol, pH 7.2, NaCl 110 mM): 58.7%
Solubility of regular Insulin, % remaining of the original concentration ([…] phenol + […] m-cresol, pH 7.2, NaCl 140 mM): 33.1%
Solubility of regular Insulin, % remaining of the original concentration ([…] phenol + […] m-cresol, pH 7.4, NaCl 50 mM): 96.7%
Solubility of regular Insulin, % remaining of the original concentration ([…] phenol + […] m-cresol, pH 7.4, NaCl 80 mM): 97.3%
Solubility of regular Insulin, % remaining of the original concentration ([…] phenol + […] m-cresol, pH 7.4, NaCl 110 mM): 94.2%
Solubility of regular Insulin, % remaining of the original concentration ([…] phenol + […] m-cresol, pH 7.4, NaCl 140 mM): 57.9%
Solubility of regular Insulin, % remaining of the original concentration ([…] phenol + […] m-cresol, pH 7.6, NaCl 50 mM): 97.2%
Solubility of regular Insulin, % remaining of the original concentration ([…] phenol + […] m-cresol, pH 7.6, NaCl 80 mM): 97.1%
Solubility of regular Insulin, % remaining of the original concentration ([…] phenol + […] m-cresol, pH 7.6, NaCl 110 mM): 97.1%
Solubility of regular Insulin, % remaining of the original concentration ([…] phenol + […] m-cresol, pH 7.6, NaCl 140 mM): 91.7%
